From PMC5947639

How the values were obtained:
[1] = molecular target: MafR_(V583), untagged MafR protein from Enterococcus faecalis V583 (Enterococcus faecalis V583); test: AUC
[2] = molecular target: MafR_(V583), untagged MafR protein from Enterococcus faecalis V583 (Enterococcus faecalis V583); test: SEC

## MafR_(V583), untagged MafR protein from Enterococcus faecalis V583 (natural protein)
[1]
  stoichiometry N: 2
[2]
  stoichiometry N: 2
